Results: publication PMC13013135, “[^99mTc]Tc-PSMA-HSG for PSMA-targeted Hybrid Surgical Guidance: a new addition to the PSMA-I&S/I&T family” (European Journal of Nuclear Medicine and Molecular Imaging, 2025)

Conditions: human, in vivo
Description: [^99mTc]Tc-PSMA-HSG scans were performed using a GE Discovery NM/CT 670 Pro (GE Healthcare, Milwaukee, USA; n = 4) or Siemens Symbia T2 (Siemens Healthineers, Erlangen, Germany; n = 1) system. For dosimetry, planar dynamic whole body scans were performed at 5 min and 1 h after injection with a bed speed of 30 cm/min; and at 3–4 h and 20 h after injection with a speed of 12 cm/min. At 3–4 h and 20 h after injection additional SPECT/CT imaging was acquired. Attenuation maps were generated on the basis of low-dose CT. For a detailed protocol of imaging parameters and the dosimetry protocol please refer to the Supplementary Material.
The planar and SPECT/CT images per time point were processed using syngo.via (Siemens Healthineers, Erlangen, Germany). Organs were segmented on the accompanying CT of the SPECT/CT of each imaging time point to avoid errors due to misalignment during image registration. Segmented organs included gallbladder, muscle, heart, kidneys, liver, lungs, pancreas, spleen, stomach, and urinary bladder on the SPECT/CT. For bone marrow dosimetry, spherical volumes of interest (VOIs) were placed in lumbar vertebrae L2 to L4 [8]. Salivary glands and their background were manually segmented on the anterior view of the planar whole-body scans. Region-wise image statistics were extracted into spreadsheets including administered activity and the time interval between administration and imaging start.
Count statistics were converted into units of Becquerel by using the decay-corrected reference activity source that was within the field of view (FOV) of each imaging acquisition. Percentage injected activities per time were entered into MIRDfit v1.01 for fitting the time-activity data. The trapezoidal method with zero activity at time zero and physical decay extrapolation after the last time point was used for the data with only two SPECT acquisitions and monoexponential fitting was used for the three SPECT acquisitions and if the fit R² was greater than 0.97. The salivary glands with available data from four planar images were fitted biexponentially if R² was greater than 0.97. The bladder was modelled in MIRDfit assuming effective half-life, two time points and a 3 h voiding interval. The resulting time integrated activity coefficients (TIACs, unit of hours) were entered in MIRDcalc v1.22 [10] for dosimetry calculations and patient-individual organ masses for kidneys, liver, pancreas, spleen and estimate for red marrow were used for S-value adjustments.

In the case of C[N+]1=C(/C=C/C=C/C=C2/N(CCCCCC(=O)NCCCC[C@@H](NC(=O)[C@@H](CO)NC(=O)[C@@H](CO)NC(=O)[C@@H](CO)NC(=O)CS)C(=O)N[C@H](Cc3ccc(O)cc3)C(=O)N[C@H](Cc3ccc4ccccc4c3)C(=O)N[C@H](CCCCNC(=O)CCCCCCC(=O)NCCCC[C@H](NC(=O)N[C@@H](CCC(=O)O)C(=O)O)C(=O)O)C(=O)O)c3ccc(S(=O)(=O)[O-])cc3C2(C)C)C(C)(C)c2cc(S(=O)(=O)O)ccc21 [[^99mTc]Tc-PSMA-HSG, metal not drawn], the “Absorbed dose coefficient of salivary glands from planar images” value is reported as 0.007 ± 0.004 mGy/MBq, the “Absorbed dose coefficient of salivary glands from planar images, max” value is reported as 0.013 mGy/MBq and the “Absorbed dose coefficient of salivary glands from planar images, min” value is reported as 0.005 mGy/MBq. The “Absorbed dose, Brain” value was 0.000 mGy/MBq, the “Absorbed dose, ET1 airway basal cells” value was 0.000 mGy/MBq and the “Absorbed dose, Eye lens” value was 0.000 mGy/MBq. The “Absorbed dose, Lymph nodes - extrathoracic” value was 0.001 mGy/MBq, the “Absorbed dose, Tonsils” value was 0.001 mGy/MBq and the “Organ TIAC, Bone marrow - red (active)” value was 0.412 h. For the same compound, the “Organ TIAC, Gallbladder content” value was 0.015 h, the “Organ TIAC, Heart content” value was 0.164 h and the “Organ TIAC, Lungs” value was 0.360 h. For the same compound, the “Organ TIAC, Muscle” value was 1.230 h, the “Organ TIAC, Pancreas” value was 0.035 h and the “Organ TIAC, Spleen” value was 0.096 h. The “Organ TIAC, Stomach content” value was 0.090 h and the “effective dose for a typically injected activity” value was 7.9 mSv.
